The values below come from PMC6210676.

This test deals with calcium/calmodulin dependent protein kinase IIα (UniProt Q9UQM7).
Chain of UniProt Q9UQM7 (Q9UQM7 whole entry): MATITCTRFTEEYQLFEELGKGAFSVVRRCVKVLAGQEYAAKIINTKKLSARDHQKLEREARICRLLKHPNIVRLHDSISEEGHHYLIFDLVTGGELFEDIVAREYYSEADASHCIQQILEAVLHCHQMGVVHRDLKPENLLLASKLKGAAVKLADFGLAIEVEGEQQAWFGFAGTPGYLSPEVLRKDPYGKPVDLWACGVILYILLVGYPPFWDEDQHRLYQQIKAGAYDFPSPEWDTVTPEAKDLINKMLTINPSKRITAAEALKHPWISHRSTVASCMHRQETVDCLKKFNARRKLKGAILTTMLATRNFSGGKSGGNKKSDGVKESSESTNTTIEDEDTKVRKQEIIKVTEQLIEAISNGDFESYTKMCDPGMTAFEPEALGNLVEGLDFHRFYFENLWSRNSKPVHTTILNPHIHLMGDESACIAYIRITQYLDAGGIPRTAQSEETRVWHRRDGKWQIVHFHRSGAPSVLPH

For the substance “wild type calmodulin (recombinant, human) (from UniProt P0DP23 1-149) (natural protein)”, the half maximal activation of CaMKIIα (phosphorylation of syntide-2, HPLC), calmodulin 10^-9 to 10^-6 M, 0.5 mM calcium chloride, 37° is 64 nM.

As for “MetO77 calmodulin (from UniProt P0DP23 1-149) (natural protein)”, the half maximal activation of CaMKIIα (phosphorylation of syntide-2, HPLC), calmodulin 10^-9 to 10^-6 M, 0.5 mM calcium chloride, 37° came out at 129 nM.
